In the supplement of paper PMC10899765:

Key:
Details in all cases: 20 nM; 72 h
MCF10A [1] = assay: one-nucleolus phenotype percent effect (relative to siNT 0% and siNOL11 100%); higher = more cells with one nucleolus (ribosome biogenesis inhibition)
Description: (§1)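 After 72 h, cells were fixed and stained with Hoechst and anti-fibrillarin, and nucleoli per nucleus were counted with CellProfiler. Values are plate-adjusted percent effect for the one-nucleolus and 5+ nucleoli phenotypes, normalised to siNT (0%) and to the positive controls siNOL11 or siKIF11 (100%), as the mean of biological triplicates. Percent viability is the nuclei count relative to siNT.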

MCF10A [2] = assay: percent viability (nuclei count relative to siNT); higher = more viable cells
Description: as §1

MCF10A [3] = assay: 5+ nucleoli phenotype percent effect (relative to siNT 0% and siKIF11 100%); higher = more cells with five or more nucleoli
Description: as §1

Sequence	one-nucleolus phenotype percent effect (MCF10A [1])	percent viability (MCF10A [2])	5+ nucleoli phenotype percent effect (MCF10A [3])
CUCGUGGGCUCUGGCCACGGCC [hsa-miR-3677-3p]	-2.83%	56.2%	-9.65%
CUCUAGAGGGAAGCACUUUCUC [hsa-miR-518f-5p]	8.67%	33.5%	3.35%
CUCUAGAGGGAAGCACUUUCUG [hsa-miR-518d-5p]	-4.59%	57.8%	5.06%
CUCUAGAGGGAAGCACUUUCUG [hsa-miR-520c-5p]	-6.38%	82.7%	17.5%
CUCUAGAGGGAAGCACUUUCUG [hsa-miR-526a]	0.562%	39.9%	-7.42%
CUCUAGAGGGAAGCGCUUUCUG [hsa-miR-518e-5p]	-0.877%	26.7%	3.26%
CUCUAGAGGGAAGCGCUUUCUG [hsa-miR-519a-5p]	-15.1%	56.5%	-2.96%
CUCUAGAGGGAAGCGCUUUCUG [hsa-miR-519b-5p]	5.75%	36.9%	-5.59%
CUCUAGAGGGAAGCGCUUUCUG [hsa-miR-519c-5p]	1.39%	31.6%	-10.6%
CUCUAGAGGGAAGCGCUUUCUG [hsa-miR-522-5p]	-5.68%	40.6%	0.209%
CUCUAGAGGGAAGCGCUUUCUG [hsa-miR-523-5p]	5.46%	54.8%	-3.36%
CUCUAGCCACAGAUGCAGUGAU [hsa-miR-1287-3p]	31.4%	17%	-37.2%
CUCUCACCACUGCCCUCCCACAG [hsa-miR-1229-3p]	-20.5%	75.8%	24.9%
CUCUCUACUGACUUGCAACAUA [hsa-miR-4684-5p]	-6.81%	72.5%	33.1%
CUCUCUGGCCGUCUACCUUCCA [hsa-miR-3191-5p]	46.1%	31.4%	-62.4%
CUCUGAUCGCCCUCUCAGCUC [hsa-miR-3192-3p]	57.6%	34.9%	-48.8%
CUCUGGGAAAUGGGACAG [hsa-miR-4314]	11.2%	25.6%	-5.34%
CUGAACUAGAGAUUGGGCCCA [hsa-miR-7158-3p]	16%	32.7%	-10.2%
CUGAAGCUCAGAGGGCUCUGAU [hsa-miR-127-5p]	39%	45.5%	-40.5%
CUGAAGUGAUGUGUAACUGAUCAG [hsa-miR-573]	-6.66%	69%	-8.65%

Sequence	one-nucleolus phenotype percent effect (MCF10A [1])	percent viability (MCF10A [2])	5+ nucleoli phenotype percent effect (MCF10A [3])
CUGAAUAGCUGGGACUACAGGU [hsa-miR-5585-3p]	-12.6%	44.1%	16.9%
CUGACCUAUGAAUUGACAGCC [hsa-miR-192-5p]	57.2%	28.2%	-30%
CUGACUGAAUAGGUAGGGUCAUU [hsa-miR-3136-5p]	24.8%	32.7%	-32.9%
CUGACUGUUGCCGUCCUCCAG [hsa-miR-943]	-0.183%	62.9%	-13.7%
CUGAUAAGAACAGAGGCCCAGAU [hsa-miR-3161]	18.2%	34.7%	-24.6%
CUGCAAAGGGAAGCCCUUUC [hsa-miR-518a-5p]	60.3%	32.4%	-45.8%
CUGCAAAGGGAAGCCCUUUC [hsa-miR-527]	46.6%	32.8%	-41.4%
CUGCAAUGUAAGCACUUCUUAC [hsa-miR-106a-3p]	18.7%	72.6%	-24.5%
CUGCAGACUCGACCUCCCAGGC [hsa-miR-1273h-3p]	13.6%	41.7%	-28.5%
CUGCAGAGUUUGUACGGACCGG [hsa-miR-3678-3p]	10.8%	66.6%	-37.4%
CUGCAGCCACUUGGGGAACUGGU [hsa-miR-7156-3p]	8.88%	57.4%	-7.7%
CUGCAGGCAGAAGUGGGGCUGACA [hsa-miR-6511b-5p]	39.6%	27.4%	-9.29%
CUGCCAGCCCCGUUCCAGGGCA [hsa-miR-3972]	-2.85%	42.9%	-1.63%
CUGCCAUGUCUAAGAAGAAAAC [hsa-miR-4659a-5p]	-12.3%	68.5%	-0.515%
CUGCCCUAGUCUAGCUGAAGCU [hsa-miR-3157-3p]	-21.2%	170%	27.8%
CUGCCCUGGCCCGAGGGACCGA [hsa-miR-874]	4.65%	62.9%	-5.29%
CUGCCUGUUCUUCCACUCCAG [hsa-miR-6514-3p]	59.9%	9.75%	-62.1%
CUGCGCAAGCUACUGCCUUGCU [hsa-let-7i-3p]	-4.21%	110%	0.0505%
CUGGACUGAGCCAUGCUACUGG [hsa-miR-1269b]	2.22%	60.9%	18.3%
CUGGACUGAGCCGUGCUACUGG [hsa-miR-1269a]	6.41%	52.7%	-26.1%

Sequence	one-nucleolus phenotype percent effect (MCF10A [1])	percent viability (MCF10A [2])	5+ nucleoli phenotype percent effect (MCF10A [3])
CUGGACUUUGAUCUUGCCAUAA [hsa-miR-8058]	32.1%	58.9%	-11.1%
CUGGAGAUAUGGAAGAGCUGUGU [hsa-miR-1270]	38.6%	34.1%	-41.4%
CUGGAGUCUAGGAUUCCA [hsa-miR-4309]	33.6%	33.2%	-25.6%
CUGGAUGGCUCCUCCAUGUCU [hsa-miR-432-3p]	62%	16.2%	-33.6%
CUGGCAGGGGGAGAGGUA [hsa-miR-7150]	46.7%	43.9%	0.85%
CUGGCCCUCUCUGCCCUUCCGU [hsa-miR-328]	-8.63%	64%	47.4%
CUGGCCUCUUCUUUCUCCUAG [hsa-miR-6878-3p]	-7.63%	45.7%	96%
CUGGGACAGGAGGAGGAGGCAG [hsa-miR-4298]	-17.4%	67.8%	39.2%
CUGGGAGAAGAGUGGUGAAGA [hsa-miR-6788-5p]	10%	24.9%	-4.55%
CUGGGAGAAGGCUGUUUACUCU [hsa-miR-30c-2-3p]	45.5%	21.9%	-29.4%
CUGGGAGAGGGUUGUUUACUCC [hsa-miR-30c-1-3p]	23.4%	13.1%	-21.9%
CUGGGAGGGGCUGGGUUUGGC [hsa-miR-6779-5p]	10.8%	36.8%	2.1%
CUGGGAGGUCAAGGCUGCAGU [hsa-miR-1273h-5p]	11.3%	38.1%	11.3%
CUGGGAGGUGGAUGUUUACUUC [hsa-miR-30b-3p]	39.4%	12.9%	-27.8%
CUGGGAGGUGUGAUAUCGUGGU [hsa-miR-3689a-3p]	27.5%	12.5%	27.1%
CUGGGAGGUGUGAUAUUGUGGU [hsa-miR-3689b-3p]	33.2%	11.3%	-12.6%
CUGGGAGGUGUGAUAUUGUGGU [hsa-miR-3689c]	44%	9.66%	-32.9%
CUGGGAUCUCCGGGGUCUUGGUU [hsa-miR-769-3p]	18%	40.7%	-14.5%
CUGGGCCCGCGGCGGGCGUGGGG [hsa-miR-6724-5p]	-9.05%	74.9%	19.6%
